Molecular target: T1, recombinant human lipoprotein lipase (hLPL) (human, UniProt P06858 28-475)
T1 sequence: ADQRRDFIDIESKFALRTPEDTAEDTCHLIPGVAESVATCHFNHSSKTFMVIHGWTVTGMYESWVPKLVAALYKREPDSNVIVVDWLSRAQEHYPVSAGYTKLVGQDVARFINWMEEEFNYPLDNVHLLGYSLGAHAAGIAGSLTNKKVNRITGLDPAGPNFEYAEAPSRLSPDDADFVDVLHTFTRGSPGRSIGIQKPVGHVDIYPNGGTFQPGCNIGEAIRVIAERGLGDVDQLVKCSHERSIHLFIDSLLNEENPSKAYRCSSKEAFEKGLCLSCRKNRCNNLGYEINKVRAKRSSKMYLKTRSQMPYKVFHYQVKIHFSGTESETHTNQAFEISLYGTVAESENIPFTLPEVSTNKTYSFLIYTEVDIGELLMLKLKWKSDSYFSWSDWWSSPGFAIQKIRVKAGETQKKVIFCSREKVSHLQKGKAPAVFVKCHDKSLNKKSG
Assay: pull-down

B1: recombinant mouse GPIHBP1 (mGPIHBP1) (natural protein)
chain: QEDGDADPEPENYNYDDDDDEEEEEETNMIPGSRDRAPLQCYFCQVLHSGESCNQTQSCSSSKPFCITLVSHSGTDKGYLTTYSMWCTDTCQPIIKTVGGTQMTQTCCQSTLCNIPPWQNPQVQNPLGGRADSPLESGTRHPQGGKFSHPQVVKAAHPQSDGANLPKSGKANQPQG
binding result: binds

Source: publication PMC10623010 (Proceedings of the National Academy of Sciences of the …, 2023)
